Test results taken from patent US20050287132A1, “Biliverdin reductase fragments and variants, and methods of using biliverdin reductase and such fragments and variants” (University of Rochester, priority 1999, published 2005).

T1: biliverdin reductase (Homo sapiens, UniProt P53004, A154S/E160D/G155D/G17A)
T1 construct: used to amplify the full-length cDNA by PCR as described in purification of cloned reductase; GST (N, cleaved yes); made in house; host or cells: E. coli
T1 sequence (P53004 1-296 G17A/A154S/G155D/E160D): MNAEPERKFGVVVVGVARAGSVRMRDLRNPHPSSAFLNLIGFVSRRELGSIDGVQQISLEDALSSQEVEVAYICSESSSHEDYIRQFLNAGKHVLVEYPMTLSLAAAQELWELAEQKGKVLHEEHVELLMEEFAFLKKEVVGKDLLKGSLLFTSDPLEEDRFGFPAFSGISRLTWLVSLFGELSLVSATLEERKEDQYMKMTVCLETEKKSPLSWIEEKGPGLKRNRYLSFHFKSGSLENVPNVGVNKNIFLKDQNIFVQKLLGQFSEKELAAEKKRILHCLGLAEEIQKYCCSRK


Legend:
biliverdin reductase [1] = assay: Phosphorylation state of hBVR, SDS-PAGE immunoblot with anti-phospho antibodies; format: biochemical, human; conditions: for autophosphorylation activity: anti-phospho mix blot, corrected for protein loading
Experimental: (§1) Purified protein was subjected to 12.5% SDS-PAGE and the protein transferred to PVDF membrane. The membrane was subsequently treated as for Western blotting, using anti-phosphoserine, anti-phosphotyrosine or anti-phosphothreonine, at 2 μg/ml, or a mixture of all three antibodies as the primary antibody. The secondary antibody was goat anti-rabbit horseradish peroxidase at a 1:1000 dilution and detection was carried out using the ECL reagent kit (NEN Life Sciences) according to the manufacturer's instructions.

[2] = Biliverdin reductase catalytic activity of recombinant wild type and mutant hBVR (Example 2, FIG. 3); format: biochemical, human
Experimental: FIGS. 3A-C are graphs depicting the effects of mutation of Gly^17, Ser^149, and Lys^296 on BVR catalytic activity. Purified preparations of recombinant wild type and mutant BVR with substitution of Gly^17 (FIG. 3A), Ser^149 (FIG. 3B), or Lys^296 (FIG. 3C) with Ala were assessed for BVR activity at pH 6.5 using NADH as cofactor and at pH 8.7 with NADPH as cofactor. Values presented are in percent wild type activity for each pH. The specific activity of the wild type preparation was 1744 nmol bilirubin produced min^−1 mg^−1 at pH 6.5 and 1147 nmol bilirubin produced min^−1 mg^−1 at pH 8.7. Values presented are representative of 2-4 determinations.
GST-BVR fusion proteins were prepared as described in Example 1. Human kidney biliverdin reductase was purified to homogeneity as described by Maines et al., Arch. Biochem. Biophys. 300:320-326 (1993), which is hereby incorporated by reference. The purified reductase preparations were judged to be homogenous by SDS-PAGE. Protein concentration was determined by the method of Bradford, Anal. Biochem. 72:248-254 (1976), which is hereby incorporated by reference.
Activity was determined as previously described by Huang et al., J. Biol. Chem. 264:7844-7849 (1989), which is hereby incorporated by reference, using NADPH as the cofactor at pH 8.7 in 0.1 M […] or NADH at pH 6.5 in […]. The rate of activity was measured as the increase in 450 nm absorbance at 25° C. Specific activity is expressed in units/mg protein, where 1 unit catalyzes the formation of 1 nmol bilirubin/min.

HeLa cells = assay: Nuclear translocation of hemagglutinin-tagged BVR constructs after 8-bromo-cGMP, immunofluorescence; format: cell-based, human; conditions: 500 μM 8-bromo-cGMP, 5 min (up to 60 min)
Experimental: HeLa cells were grown on glass cover slips in DMEM medium containing 10% FBS under an atmosphere of 5% CO2. Cells were transfected with different BVR constructs using Lipofectamine, as described by the manufacturer. Briefly, cells were treated with a mixture of 2 μg DNA and 20 μl Lipofectamine for 5 h followed by the addition of DMEM medium. After 48 h, cells were treated with 500 μM 8-bromo-cGMP for 5, 20 or 60 min, fixed with 4% paraformaldehyde for 10 min. Cells were then rinsed with phosphate-buffered saline, incubated with 5% goat serum to block nonspecific binding sites and then with monoclonal anti hemagglutinin primary antibody and FITC conjugated secondary antibody. Cells were visualized by direct fluorescence microscopy.

biliverdin reductase [3] = molecular target: T1, biliverdin reductase; assay: Phosphorylation state of hBVR, SDS-PAGE immunoblot with anti-phospho antibodies; format: biochemical; conditions: versus wild type
Experimental: as §1

[4] = Biliverdin reductase activity of E. coli expressed hBVR wild type and mutants (Example 1); format: biochemical, human; conditions: for Activity (nmol bilirubin/min/mg) pH 6.7 + NADH: pH 6.7, NADH cofactor; for Activity (nmol bilirubin/min/mg) pH 6.7 + NADH / Activity (nmol bilirubin/min/mg) pH 8.7 + NADPH: 25°; for Activity (nmol bilirubin/min/mg) pH 8.7 + NADPH: pH 8.7, NADPH cofactor
Experimental: SalI linkers are underlined in each primer. The products were digested with SalI and cloned into the vector pGEX 4T-2. Orientation was determined by restriction analysis and confirmed by sequencing. The ligation places the BVR coding region in frame with the GST protein of the vector. GST-BVR fusion proteins were purified from bacterial clones containing the plasmid, and grown overnight using a glutathione-sepharose 4B column (Pharmacia). The reductase portion of the fusion protein was released by thrombin protease treatment.
Activity was determined as previously described (Kutty et al., J. Biol. Chem. 256:3956-3962 (1981); Huang et al., J. Biol. Chem. 264:7844-7849 (1989), which are hereby incorporated by reference). Activity was determined in a 1 ml assay volume that contained 0.1 M Tris/HCl, pH 8.7 NADPH (100 μM), and biliverdin (5 μM). Reductase activity was also measured using NADH (1 mM) as the cofactor; in this case 0.1 M potassium phosphate pH 6.75, was substituted for Tris/HCl. SDS/PAGE was performed by the method of Laemmli, Nature 227:680-685 (1970), which is hereby incorporated by reference. Western blot analysis was performed using anti-serum to human kidney biliverdin reductase as previously described (Maines et al., Arch. Biochem. Biophys. 300:320-326 (1993), which is hereby incorporated by reference). The relative amounts of immunoreactive protein were determined by scanning the blot using a laser densitometer and comparing the area under the peak for each mutant with the wild type. The rate of activity was measured as the increase in 450 nm absorbance at 25° C. Specific activity is expressed as nmol bilirubin/min/ mg protein.

Row | Molecule | autophosphorylation activity (biliverdin reductase [1]) | BVR catalytic activity versus wild type ([2]; pH 6.5, NADH) | BVR catalytic activity versus wild type ([2]; pH 8.7, NADPH) | nuclear localization in response to 8-bromo-cGMP (HeLa cells) | Activity (nmol bilirubin/min/mg) pH 6.7 + NADH [4] [nmol bilirubin/min/mg] | reductase activity relative to the control (wild type) ([4]; pH 6.7 with NADH) | Activity (nmol bilirubin/min/mg) pH 8.7 + NADPH [4] [nmol bilirubin/min/mg] | also measured
1 | Lys^296 mutant: hBVR with Lys^296→Ala at the C terminus within a substrate binding domain (protein, UniProt P53004 3-296, looked up, variant K296A) Biliverdin reductase A: AEPERKFGVVVVGVGRAGSVRMRDLRNPHPSSAFLNLIGFVSRRELGSIDGVQQISLEDALSSQEVEVAYICSESSSHEDYIRQFLNAGKHVLVEYPMTLSLAAAQELWELAEQKGKVLHEEHVELLMEEFAFLKKEVVGKDLLKGSLLFTAGPLEEERFGFPAFSGISRLTWLVSLFGELSLVSATLEERKEDQYMKMTVCLETEKKSPLSWIEEKGPGLKRNRYLSFHFKSGSLENVPNVGVNKNIFLKDQNIFVQKLLGQFSEKELAAEKKRILHCLGLAEEIQKYCCSRA | essentially comparable to that of the wild type protein | doubling of activity | doubling of activity |  |  |  |  | 
2 | NLS mutant: hemagglutinin tagged hBVR with amino acids 222-227 changed from GLKRNR to VIGSTG (SEQ. ID. No. 25) (protein, UniProt P53004 3-296, looked up, variant G222V L223I K224G R225S N226T R227G, hemagglutinin tag) Biliverdin reductase A: AEPERKFGVVVVGVGRAGSVRMRDLRNPHPSSAFLNLIGFVSRRELGSIDGVQQISLEDALSSQEVEVAYICSESSSHEDYIRQFLNAGKHVLVEYPMTLSLAAAQELWELAEQKGKVLHEEHVELLMEEFAFLKKEVVGKDLLKGSLLFTAGPLEEERFGFPAFSGISRLTWLVSLFGELSLVSATLEERKEDQYMKMTVCLETEKKSPLSWIEEKGPVIGSTGYLSFHFKSGSLENVPNVGVNKNIFLKDQNIFVQKLLGQFSEKELAAEKKRILHCLGLAEEIQKYCCSRK |  |  |  | not detected |  |  |  | 
3 | Gly^17: hBVR SEQ. ID. No. 1 with Gly^17→Ala within the nucleotide binding domain (protein, listed as Homo sapiens) MNAEPERKFGVVVVGVARAGSVRMRDLRNPHPSSAFLNLIGFVSRRELGSIDGVQQISLEDALSSQEVEVAYICSESSSHEDYIRQFLNAGKHVLVEYPMTLSLAAAQELWELAEQKGKVLHEEHVELLMEEFAFLKKEVVGKDLLKGSLLFTSDPLEEDRFGFPAFSGISRLTWLVSLFGELSLVSATLEERKEDQYMKMTVCLETEKKSPLSWIEEKGPGLKRNRYLSFHFKSGSLENVPNVGVNKNIFLKDQNIFVQKLLGQFSEKELAAEKKRILHCLGLAEEIQKYCCSRK |  | essentially inactive | essentially inactive |  | 698 | 20-25% | 0 | reduction in phosphorylation (biliverdin reductase [3]; anti-phospho mix, laser densitometry): approximately 50%; reduction of phosphoserine signal (biliverdin reductase [3]; anti-phosphoserine): approximately 50%; reduction in phosphothreonine signal (biliverdin reductase [3]; anti-phosphothreonine): not evident; reduction of phosphotyrosine signal (biliverdin reductase [3]; anti-phosphotyrosine): approximately 50%; reductase activity relative to the control (wild type) ([4]; pH 8.7 with NADPH): inactive
4 | Ser^149: hBVR SEQ. ID. No. 1 with Ser^149→Ala within the kinase motif of the leucine zipper (protein, listed as Homo sapiens) MNAEPERKFGVVVVGVGRAGSVRMRDLRNPHPSSAFLNLIGFVSRRELGSIDGVQQISLEDALSSQEVEVAYICSESSSHEDYIRQFLNAGKHVLVEYPMTLSLAAAQELWELAEQKGKVLHEEHVELLMEEFAFLKKEVVGKDLLKGALLFTSDPLEEDRFGFPAFSGISRLTWLVSLFGELSLVSATLEERKEDQYMKMTVCLETEKKSPLSWIEEKGPGLKRNRYLSFHFKSGSLENVPNVGVNKNIFLKDQNIFVQKLLGQFSEKELAAEKKRILHCLGLAEEIQKYCCSRK | essentially comparable to that of the wild type protein | essentially inactive | essentially inactive |  | 0 | inactive | 231 | reductase activity relative to the control (wild type) ([4]; pH 8.7 with NADPH, listed as Ser^149 mutant): minimal activity
5 | wild type: wild type human biliverdin reductase, SEQ. ID. No. 1; E. coli expressed or purified from human kidney (protein, listed as Homo sapiens) MNAEPERKFGVVVVGVGRAGSVRMRDLRNPHPSSAFLNLIGFVSRRELGSIDGVQQISLEDALSSQEVEVAYICSESSSHEDYIRQFLNAGKHVLVEYPMTLSLAAAQELWELAEQKGKVLHEEHVELLMEEFAFLKKEVVGKDLLKGSLLFTSDPLEEDRFGFPAFSGISRLTWLVSLFGELSLVSATLEERKEDQYMKMTVCLETEKKSPLSWIEEKGPGLKRNRYLSFHFKSGSLENVPNVGVNKNIFLKDQNIFVQKLLGQFSEKELAAEKKRILHCLGLAEEIQKYCCSRK |  |  |  | strong punctate staining associated with the nucleus | 2830 |  | 1338 | phosphorylation state (biliverdin reductase [1]; protein purified from human kidney, anti-phospho mix): phosphoprotein; specific activity ([2]; pH 6.5, NADH): 1744 nmol bilirubin produced min^−1 mg^−1; specific activity ([2]; pH 8.7, NADPH): 1147 nmol bilirubin produced min^−1 mg^−1; Activity % pH 6.7 + NADH ([4]; Cys→Ala mutations, wild type = 100, pH 6.7, NADH): 100%; Activity % pH 8.7 + NADPH ([4]; Cys→Ala mutations, wild type = 100, pH 8.7, NADPH): 100%
